The values that follow come from the Immune Epitope Database (IEDB).

pKd: −log10 of the molar value.

One test addresses HLA-B*08:01. The test can be described thus: IEDB peptide-MHC binding, purified MHC/direct/fluorescence; filed as Kd, often an IC50 or EC50 that approximates it; ≥ and ≤ were set here for values at or beyond the usual limits of such assays. The following applies: source organism: West Nile virus.
The target in test [1] is HLA-B*46:01. The test is described as above.
The target in test [2] is HLA-A*03:01. Described as above.
The target in another test is HLA-A*31:01. Described as above.
A further test addresses HLA-B*40:01. The test is described as above.
The target in test [3] is HLA-B*18:01. The test is described as above.
A further test concerns the target HLA-B*44:02. Described as above.
The target in the next test is HLA-B*48:01. The test is described as above. The following applies: source organism: West Nile virus.
Test [4] addresses HLA-B*15:01. The description is as above.
In another test the target is HLA-B*27:05. The description is as above.
For test [5], the target named is HLA-A*02:01. The test is described as above.
In a further test the target is HLA-B*08:02. The test is described as above.
In test [6] the target is HLA-A*01:01. Described as above.
Test [7] addresses HLA-B*58:01. Described as above.
The target in the next test is HLA-A*11:01. The description is as above.
Another test deals with HLA-B*07:02. The description is as above. The following applies: source organism: West Nile virus.
The next test has as its target HLA-A*29:02. The test is described as above.
The target of test [8] is HLA-A*69:01. Described as above.
Test [9] has as its target HLA-B*57:01. The description is as above.
Test [10] concerns the target HLA-A*02:12. Described as above. The following applies: source organism: Zaire ebolavirus.
The next test addresses HLA-A*02:16. The test is described as above. The following applies: source organism: Zaire ebolavirus.
In test [11] the target is HLA-A*02:03. Described as above. The following applies: source organism: Zaire ebolavirus.
The target of test [12] is HLA-A*02:11. Described as above. To be noted: source organism: Zaire ebolavirus.
Test [13] addresses HLA-A*02:19. Described as above. To be noted: source organism: Zaire ebolavirus.
The next test deals with HLA-A*68:02. The test is described as above. To be noted: source organism: Zaire ebolavirus.
Test [14] has as its target HLA-B*46:01. Briefly: IEDB peptide-MHC binding, purified MHC/competitive/fluorescence; filed as Kd, often an IC50 or EC50 that approximates it; ≥ and ≤ were set here for values at or beyond the usual limits of such assays.
The next test deals with HLA-A*26:01. The description is as above.
For test [15], the target named is HLA-B*18:01. The test is described as above.
A further test has as its target HLA-B*39:01. The test is described as above.
The target of test [16] is HLA-A*02:01. Described as above.
Test [17] deals with HLA-B*58:01. The description is as above.
Test [18] concerns the target HLA-A*69:01. Described as above.
The target of another test is HLA-B*27:03. The description is as above.
Test [19] has as its target HLA-B*15:01. The test is described as above. To be noted: source organism: Shigella flexneri 5 str. 8401.
Test [20] has as its target HLA-A*03:01. The description is as above.
Test [21] has as its target HLA-A*02:12. The test is described as above. To be noted: source organism: Vibrio parahaemolyticus AQ3810.
Test [22] concerns the target HLA-A*02:03. The description is as above.
Test [23] concerns the target HLA-A*02:19. Described as above.
Test [24] has as its target HLA-B*57:01. The description is as above. The following applies: source organism: Vibrio parahaemolyticus AQ3810.
Test [25] has as its target HLA-A*02:11. The test is described as above. The following applies: source organism: Human immunodeficiency virus 1.
The target in test [26] is HLA-A*01:01. The test is described as above.
The mark [27] stands for this setting: source organism: West Nile virus.
The mark [28] stands for this setting: source organism: Zaire ebolavirus.
Setting [29] is: source organism: Shigella flexneri 5 str. 8401.
Where [30] appears, read: source organism: Vibrio parahaemolyticus AQ3810.
The mark [31] stands for this setting: source organism: Human immunodeficiency virus 1.
The mark [32] stands for this setting: source organism: Salmonella enterica subsp. enterica serovar Typhi.
The mark [33] stands for this setting: source organism: Yellow fever virus.
[34] abbreviates: source organism: Yersinia pestis Nepal516.
Setting [35] is: source organism: Yersinia pestis Antiqua.

In the case of KCRVKMEKL, the negative logarithm of the Kd (pKd) with HLA-B*08:01, with HLA-B*46:01 [1] (setting [27]), with HLA-A*03:01 [2] (setting [27]), with HLA-A*31:01 (setting [27]), with HLA-B*40:01 (setting [27]) and with HLA-B*18:01 [3] (setting [27]) was at most 4.70 in each case. The pKd in the test with HLA-B*44:02 (setting [27]), with HLA-B*48:01, with HLA-B*15:01 [4] (setting [27]), in the test with HLA-B*27:05 (setting [27]), in the test with HLA-A*02:01 [5] (setting [27]) and with HLA-B*08:02 (source organism: West Nile virus strain PTRoxo) was at most 4.70 throughout. The negative-log Kd (pKd) with HLA-A*01:01 [6] (setting [27]), with HLA-B*58:01 [7] (setting [27]), with HLA-A*11:01 (setting [27]), with HLA-B*07:02, with HLA-A*29:02 (setting [27]) and with HLA-A*69:01 [8] (setting [27]) was at most 4.70 each time. The pKd (usually −log10 of the Kd, conventionally taken in molar units) in the test with HLA-B*57:01 [9] (setting [27]) was at most 4.70.
KTNDFAPAW: the pKd in the test with HLA-A*02:12 [10] was at most 4.70; in the test with HLA-A*02:16, at most 4.70; in the test with HLA-A*02:03 [11], at most 4.70; with HLA-B*15:01 [4] (source organism: Ebola virus - Gabon (1994-1997)), at most 5.30; with HLA-A*02:11 [12], at most 4.70; in the test with HLA-A*02:19 [13], at most 4.70. The pKd with HLA-A*68:02, with HLA-B*46:01 [14] (setting [28]), with HLA-A*26:01 (setting [28]), with HLA-B*18:01 [15] (setting [28]), with HLA-B*39:01 (setting [28]) and in the test with HLA-A*02:01 [16] (setting [28]) was at most 4.70 throughout. Further, the pKd with HLA-B*58:01 [17] (setting [28]) is 8.89; with HLA-A*69:01 [18] (setting [28]), at most 4.70; with HLA-B*27:03 (setting [28]), at most 4.70.
With HLTPAQLSM, the results for the pKd with HLA-B*15:01 [19], with HLA-A*02:01 [16] (setting [29]) and with HLA-B*58:01 [17] (setting [29]) were 5.75, 6.52 and at most 5.30, respectively.
On to SSRGYSAIW, for which the pKd in the test with HLA-B*46:01 [14] (setting [30]), with HLA-A*03:01 [20] (setting [30]), in the test with HLA-A*02:12 [21], in the test with HLA-A*26:01 (setting [30]), with HLA-B*18:01 [15] (setting [30]) and in the test with HLA-A*02:03 [22] (setting [30]) was at most 4.70 each time. Also, the pKd with HLA-B*39:01 (setting [30]) is at most 4.70; in the test with HLA-A*02:19 [23] (setting [30]) it was at most 4.70; in the test with HLA-B*57:01 [24], 7.38; with HLA-B*27:03 (setting [30]), at most 4.70.
GLADQLIHI: the pKd with HLA-A*02:03 [22] (setting [31]) was 8.92; with HLA-A*02:11 [25], 9.70; in the test with HLA-A*02:01 [16] (setting [31]), 7.53; in the test with HLA-A*02:19 [23] (setting [31]) it was 8.02; with HLA-A*69:01 [18] (setting [31]), at most 4.70.
For the sequence ITSKEVFTY, the pKd with HLA-A*03:01 [20] (setting [32]) was 5.64; with HLA-A*01:01 [26] (setting [32]) it was 7.47; with HLA-B*58:01 [17] (setting [32]), 7.59.
Consider GSRAYRNAL, for which the pKd in the test with HLA-B*46:01 [1] (setting [33]), with HLA-A*03:01 [2] (setting [33]), with HLA-A*31:01 (setting [33]), with HLA-B*40:01 (setting [33]), with HLA-B*18:01 [3] (setting [33]) and with HLA-B*44:02 (setting [33]) was at most 4.70 throughout. The pKd in the test with HLA-B*15:01 [4] (setting [33]), in the test with HLA-B*27:05 (setting [33]), with HLA-A*02:01 [5] (setting [33]), with HLA-B*08:02 (setting [33]), with HLA-A*01:01 [6] (setting [33]) and with HLA-B*58:01 [7] (setting [33]) was at most 4.70 each time. Besides, the negative-log Kd (pKd) with HLA-A*11:01 (setting [33]), in the test with HLA-A*29:02 (setting [33]), with HLA-A*69:01 [8] (setting [33]) and with HLA-B*57:01 [9] (setting [33]) was at most 4.70 each time.
For STIVWSSRY, the figures for the pKd with HLA-A*03:01 [20] (setting [34]), in the test with HLA-A*01:01 [26] (setting [34]) and with HLA-B*58:01 [17] (setting [34]) were 5.46, 5.85 and 6.77, respectively.
For SAYERGLRY, the pKd in the test with HLA-A*03:01 [20] (setting [35]) was 7.27; with HLA-B*58:01 [17] (setting [35]), at most 4.70.
